Data taken from patent US9708383 (Novo Nordisk, dated 2017).
*1 amine or outer side, *2 acyl side, *3 side chain or, on linkers, in order; H or OH if unused. Where no end group is shown, it is not given here. Side-chain parts run from the residue outwards. [ ]: non-standard residue; d: D form. The star is where a group is joined. Decanoyl(10-(4-HOOC-PhO)) = O=C(O)c1ccc(OCCCCCCCCCC(=O)*)cc1; γGlu = O=C(O)[C@H](CCC(=O)[*:2])N[*:1]; C12 diacid = O=C(O)CCCCCCCCCCC(=O)*; 13‑carboxytridecanoyl = C14 diacid; AEEA = NCCOCCOCC(=O)O; Aib = CC(C)(N)C(=O)O

B1: GLP-1 derivative of Example 47: [Lys18,Glu22,Val25,Arg26,Lys27,His31,Arg34]-GLP-1-(7-37)-peptide (peptide)
peptide: HAEGTFTSDVSK([AEEA-AEEA-γGlu-13‑carboxytridecanoyl])YLEEQAVRKFIAHLVRGRG
notes: Printed name omits the second acylation; printed masses fit a double-acylated compound

Assays:
human GLP-1 receptor [1] = biological target: T1, human GLP-1 receptor (human, UniProt P43220 24-463); assay: SPA, 2.0% vs 0.005% HSA
T1 construct: whole, on cells; Used as purified membranes of the transfected hamster cells, not whole cells; also called hGLP-1
Description: (§1) A shift in the binding affinity, $IC50$, is an indication that the derivative in question binds to albumin, and thereby a prediction of a potential protracted pharmacokinetic profile of the derivative in question in animal models.
(§2) 25 ul (microliter) of test compounds are added to Optiplate. HSA ("high albumin" experiment containing 2% HSA), or buffer ("low albumin" experiment containing 0.005% HSA), was added (50 ul). 5-10 µg protein/sample was added (50 ul) corresponding to 0.1-0.2 mg protein/ml (to be preferably optimised for each membrane preparation). SPA-particles (Wheatgerm agglutinin SPA beads, Perkin Elmer, #RPNQ0001) were added in an amount of 0.5 mg/well (50 ul). […] The plates were sealed with PlateSealer and incubated for 120 minutes at 30° C. while shaking. The plates were centrifuged (1500 rpm, 10 min) and counted in Topcounter.

human GLP-1 receptor [2] = biological target: T1, human GLP-1 receptor; assay: SPA, displacement of 125I-GLP-1(7-36)NH2, 0.005% HSA
Description: as §1, §2

Binder	ratio IC50 high HSA/IC50 low HSA (human GLP-1 receptor [1])	IC50 (human GLP-1 receptor [2])
H[Aib]EGTFTSDVSK([AEEA-AEEA-γGlu-13‑carboxytridecanoyl])YLEEQAARK([AEEA-AEEA-γGlu-13‑carboxytridecanoyl])FIAHLVRG (ends and bridges not checked) [GLP-1 derivative of Example 9: [Aib8,Lys18,Glu22,Arg26,Lys27,His31,Arg34]-GLP-1-(7-35)-peptide]	> 1	< 1000 nM
HAEGTFTSDVSK([AEEA-AEEA-γGlu-13‑carboxytridecanoyl])YLEEQAAREFIAK([AEEA-AEEA-γGlu-13‑carboxytridecanoyl])LVRGRG [GLP-1 derivative of Example 78: [Lys18,Glu22,Arg26,Lys31,Arg34]-GLP-1-(7-37)-peptide]	> 1	< 1000 nM
HAEGTFTSDVSK([AEEA-AEEA-γGlu-Decanoyl(10-(4-HOOC-PhO))])YLEGQAAK([AEEA-AEEA-γGlu-Decanoyl(10-(4-HOOC-PhO))])EFIAWLVQGRG [GLP-1 derivative of Example 34: [Lys18,Gln34]-GLP-1-(7-37)-peptide]	> 1	< 1000 nM
HAEGTFTSDVSK([AEEA-AEEA-γGlu-Decanoyl(10-(4-HOOC-PhO))])YLEEQAAHK([AEEA-AEEA-γGlu-Decanoyl(10-(4-HOOC-PhO))])FIAWLVQGRG [GLP-1 derivative of Example 35: [Lys18,Glu22,His26,Lys27,Gln34]-GLP-1-(7-37)-peptide]	> 1	< 1000 nM
HAEGTFTSDVSK([AEEA-AEEA-γGlu-Decanoyl(10-(4-HOOC-PhO))])YLEEQAAK([AEEA-AEEA-γGlu-Decanoyl(10-(4-HOOC-PhO))])EFIAWLVQGRG [GLP-1 derivative of Example 38: [Lys18,Glu22,Gln34]-GLP-1-(7-37)-peptide]	> 1	< 1000 nM
HAEGTFTSDVSK([AEEA-AEEA-γGlu-C12 diacid])YLEEQAAK([AEEA-AEEA-γGlu-C12 diacid])EFIAWLVQGRG [GLP-1 derivative of Example 40: [Lys18,Glu22,Gln34]-GLP-1-(7-37)-peptide]	> 1	< 1000 nM
HAEGTFTSDVSK([AEEA-AEEA-γGlu-Decanoyl(10-(4-HOOC-PhO))])YLEEQAVRK([AEEA-AEEA-γGlu-Decanoyl(10-(4-HOOC-PhO))])FIAWLVQGRG [GLP-1 derivative of Example 42: [Lys18,Glu22,Val25,Arg26,Lys27,Gln34]-GLP-1-(7-37)-peptide]	> 1	< 1000 nM
HAEGTFTSDVSK([AEEA-AEEA-γGlu-13‑carboxytridecanoyl])YLEEQAVREFIAK([AEEA-AEEA-γGlu-13‑carboxytridecanoyl])LVRGRG [GLP-1 derivative of Example 43: [Lys18,Glu22,Val25,Arg26,Lys31,Arg34]-GLP-1-(7-37)-peptide]	> 1	< 1000 nM
HAEGTFTSDVSK([AEEA-AEEA-γGlu-13‑carboxytridecanoyl])YLEEQAVREFIAK([AEEA-AEEA-γGlu-13‑carboxytridecanoyl])LVQGRG [GLP-1 derivative of Example 44: [Lys18,Glu22,Val25,Arg26,Lys31,Gln34]-GLP-1-(7-37)-peptide]	> 1	< 1000 nM
HAEGTFTSDVSK([AEEA-AEEA-γGlu-13‑carboxytridecanoyl])YLEEQAVRK([AEEA-AEEA-γGlu-13‑carboxytridecanoyl])FIAWLVRGRG [GLP-1 derivative of Example 46: [Lys18,Glu22,Val25,Arg26,Lys27,Arg34]-GLP-1-(7-37)-peptide]	> 1	< 1000 nM
B1	> 1	< 1000 nM
HAEGTFTSDVSK([AEEA-AEEA-γGlu-13‑carboxytridecanoyl])YLEEQAVRK([AEEA-AEEA-γGlu-13‑carboxytridecanoyl])FIAWLVQGRG [GLP-1 derivative of Example 48: [Lys18,Glu22,Val25,Arg26,Lys27,Gln34]-GLP-1-(7-37)-peptide]	> 1	< 1000 nM
HAEGTFTSDVSK([AEEA-AEEA-γGlu-13‑carboxytridecanoyl])YLEEQAAK([AEEA-AEEA-γGlu-13‑carboxytridecanoyl])EFIAWLVQGRG [GLP-1 derivative of Example 54: [Lys18,Glu22,Gln34]-GLP-1-(7-37)-peptide]	> 1	< 1000 nM
HAEGTFTSDVSK([γGlu-AEEA-AEEA-13‑carboxytridecanoyl])YLEEQAVREFIAK([γGlu-AEEA-AEEA-13‑carboxytridecanoyl])LVRGRG [GLP-1 derivative of Example 55: [Lys18,Glu22,Val25,Arg26,Lys31,Arg34]-GLP-1-(7-37)-peptide]	> 1	< 1000 nM
HAEGTFTSDVSK([γGlu-AEEA-AEEA-13‑carboxytridecanoyl])YLEEQAVREFIAK([γGlu-AEEA-AEEA-13‑carboxytridecanoyl])LVQGRG [GLP-1 derivative of Example 56: [Lys18,Glu22,Val25,Arg26,Lys31,Gln34]-GLP-1-(7-37)-peptide]	> 1	< 1000 nM
HAEGTFTSDVSK([AEEA-AEEA-γGlu-13‑carboxytridecanoyl])YLEEEAVRK([AEEA-AEEA-γGlu-13‑carboxytridecanoyl])FIAWLVRGRG [GLP-1 derivative of Example 57: [Lys18,Glu22,Glu23,Val25,Arg26,Lys27,Arg34]-GLP-1-(7-37)-peptide]	> 1	< 1000 nM
HAEGTFTSDVSK([AEEA-AEEA-γGlu-13‑carboxytridecanoyl])YLEEEAVRK([AEEA-AEEA-γGlu-13‑carboxytridecanoyl])FIAWLVQGRG [GLP-1 derivative of Example 58: [Lys18,Glu22,Glu23,Val25,Arg26,Lys27,Gln34]-GLP-1-(7-37)-peptide]	> 1	< 1000 nM
HAEGTFTSDVSK([AEEA-AEEA-γGlu-13‑carboxytridecanoyl])YLEEQAAHK([AEEA-AEEA-γGlu-13‑carboxytridecanoyl])FIAWLVRGRG [GLP-1 derivative of Example 60: [Lys18,Glu22,His26,Lys27,Arg34]-GLP-1-(7-37)-peptide]	> 1	< 1000 nM
HAEGTFTSDVSK([AEEA-AEEA-γGlu-13‑carboxytridecanoyl])YLEEQAAHK([AEEA-AEEA-γGlu-13‑carboxytridecanoyl])FIAWLVQGRG [GLP-1 derivative of Example 61: [Lys18,Glu22,His26,Lys27,Gln34]-GLP-1-(7-37)-peptide]	> 1	< 1000 nM
HAEGTFTSDVSK([AEEA-AEEA-γGlu-13‑carboxytridecanoyl])YLEEQAAHK([AEEA-AEEA-γGlu-13‑carboxytridecanoyl])FIAHLVRGRG [GLP-1 derivative of Example 62: [Lys18,Glu22,His26,Lys27,His31,Arg34]-GLP-1-(7-37)-peptide]	> 1	< 1000 nM
HAEGTFTSDVSK([AEEA-AEEA-γGlu-Decanoyl(10-(4-HOOC-PhO))])YLEGQAAHK([AEEA-AEEA-γGlu-Decanoyl(10-(4-HOOC-PhO))])FIAWLVQGRG [GLP-1 derivative of Example 67: [Lys18,His26,Lys27,Gln34]-GLP-1-(7-37)-peptide]	> 1	< 1000 nM
HAEGTFTSDVSK([AEEA-AEEA-γGlu-13‑carboxytridecanoyl])YLEGQAAREFIAK([AEEA-AEEA-γGlu-13‑carboxytridecanoyl])LVRGRG [GLP-1 derivative of Example 70: [Lys18,Arg26,Lys31,Arg34]-GLP-1-(7-37)-peptide]	> 1	< 1000 nM
HAEGTFTSDVSK([AEEA-AEEA-γGlu-13‑carboxytridecanoyl])YLEGQAAHEFIAK([AEEA-AEEA-γGlu-13‑carboxytridecanoyl])LVRGRG (position 26 of the entry may not be His) [GLP-1 derivative of Example 72: [Lys18,His26,Lys31,Arg34]-GLP-1-(7-37)-peptide]	> 1	< 1000 nM
